Changes are numbered by the printed parent chain.
B1: MLC021: unconjugated GLP-1/GDF15 fusion protein, linker of at least 80 residues (protein)
chain: HGEGTFTSDVSSYLEEQAAKEFIAWLVRGGGGQEPGAQPGQEPGAQPGQEPGAQPGQEPGAQPGQEPGAQPGQEPGAQPGAQPGAQPGAQPGAQPGAQPGAQPGAQPGAQPARQGDHCPLGPGRCCRLHTVRASLEDLGWADWVLSPREVQVTMCIGACPSQFRAANLHAQIKTSLHRLKPDTVPAPCCVPASYNPMVLIQKTDTGVSLQTYDDLLAKDCHCI
B2: MLC047: fusion polypeptide SEQ ID NO: 330 conjugated with Moiety A at 40K of linker (conjugate)
chain: B1 chain with K20R, P71K, K180R, K202R, K218R

Experiments:
[1] = Body weight and food intake in C57BL/6 mice, unconjugated fusion proteins, 30 nmol/kg daily 10 days; type: in vivo
Procedure: 10 week old male C57BL/6 mice were injected everyday subcutaneously with 15 nmol/kg of the fusion protein conjugates (i.e., MLC002, MLC 004, MLC 005, MLC 006, MLC 007, MLC 008, and MLC 009) for 14 days. Food intake and body weight were measured daily and five animals were used for each treatment group. Body weight (BW) was monitored for each individual animal, but food intake for each group animals was measured together. Day 1 and Day 14 are first day and last day of molecule dosage. % BW loss=100*(BW on Day n-BW on Day 1)/(BW on Day 1). Cumulative food intake on Day n represents sum of food intake from Day 1 to Day n. Data are indicated as mean values and standard error (SEM) or pooled values. Statistical analysis was performed by One-way ANOVA. Body weight reduction on Day 11 is calculated by −1*(% BW loss−% BW loss of vehicle group); Cumulative food intake reduction is calculated by −100*(cumulative food intake-cumulative food intake of vehicle)/cumulative food intake of vehicle.
As described in the above method, a daily dose of 30 nmol/kg of the unconjugated fusion proteins (i.e., MLC100, MLC023, MLC022, MLC020, MLC003, MLC124, MLC021, MLC019, MLC102) were administered to C57BL/6 for 10 days. Data were calculated as above method. Day 1 and Day 10 are first day and last day of administration.

[2] = Additive or synergistic effect: body weight and food intake in C57BL/6 mice, 30 nmol/kg daily sc 10 days; type: in vivo; settings: versus negative controls MLC096 and MLC097
Procedure: FIGS. 7A-7B show In vivo efficacy in C57 lean mice. To evaluate the body weight and food intake effects of the fusion proteins, 10 week old male C57BL/6J mice were dosed everyday subcutaneously with 30 nmol/kg protein for 10 days. Food intake and body weight were measured daily. […] Data are expressed as mean values and standard error (SEM) for FIG. 7A. n=5 for each treatment group. For FIG. 7B, a pooled food intake was measured for each treatment group.
10 week old male C57BL/6 mice were injected everyday subcutaneously with 30 nmol/kg of the unconjugated fusion proteins (i.e., MLC096, MLC097 and MLCO21) for 10 days. Food intake and body weight were measured daily and five animals were used for each treatment group. Body weight (BW) was monitored for each individual animal, but food intake for each group animals was measured together. Day 1 and Day 10 are first day and last day of molecule dosage. % BW loss=100*(BW on Day n-BW on Day 1)/(BW on Day 1). Cumulative food intake on Day n represents sum of food intake from Day 1 to Day n. Data are indicated as mean values and standard error (SEM) or pooled values. Statistical analysis was performed by One-way ANOVA.
As discussed above, MLC096 and MLC097 were used as negative controls, as they contained known inactivating mutation in GDF15 or GLP-1.

[3] = mouse, in vivo, sc, 30 nmol/kg
Procedure: (§1) Each fusion protein was injected subcutaneously into C57BL/6 mice (n=3/group) once and plasma samples were collected at designed time points and analyzed by ELISA method. Plasma concentrations are indicated as mean values and standard error (SEM).
(§2) 6-8 week old male C57BL/6 mice were administrated in a single subcutaneous dose of 30 nmol/kg of the fusion protein conjugates or unconjugated fusion proteins (i.e., MLC002, MLC004, MLC005, MLC006, MLC007, MLC008, MLC009, MLC013, MLC017, MLC047, MLC074, MLC075, MLC089, MLC093, MLC003 and MLC019) (n=3/group). Plasma samples were collected pre-dose (−5 min), 0.5 hr, 1 hr, 2 hr, 4 hr, 6 hr, 8 hr, 12 hr, 24 hr, 48 hr and 72 hr after the injection. The concentrations of the fusion protein conjugates in the plasma were measured by an ELISA assay which has immunoreactivity towards both GDF15 and intact N-terminal of GLP-1. Based on the graph showing plasma concentration of each protein versus time after subcutaneous injection, the pharmacokinetic parameters (including Tmax, Cmax, T1/2, AUC) were calculated by WinNonlin software.

[4] = PK study in non-human primates, single sc dose 5 nmol/kg, plasma ELISA; settings: monkey, single sc dose 5 nmol/kg
Procedure: (§3) Plasma samples were collected pre-dose (−5 min), 2 hr, 4 hr, 6 hr, 8 hr, 24 hr, 48 hr, 72 hr, 96 hr, 120 hr, 144 hr, 216 hr, 288 hr, 360 hr, 432 hr and 504 hr after the injection. The concentrations of the fusion protein conjugates in the plasma were measured by an ELISA assay which has immunoreactivity towards both GDF15 and intact N-terminal of GLP-1. Based on the graph showing plasma concentration of each protein versus time after subcutaneous injection, the pharmacokinetic parameters (including Tmax, Cmax, T1/2, AUC) were calculated by WinNonlin software.

[5] = Pharmacokinetic measurement in mouse, single sc dose 30 nmol/kg, plasma ELISA; settings: single sc dose 30 nmol/kg
Procedure: as §1, §2

[6] = Body weight and food intake in C57BL/6 mice, fusion protein conjugates, 30 nmol/kg daily 10 days; type: in vivo
Method in brief: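 Male C57BL/6 mice received fusion protein conjugates by daily subcutaneous injection, with dosing running from Day 1 to Day 10. Body weight was recorded daily per animal and food intake daily per group. Body weight reduction was expressed relative to vehicle percent loss from Day 1. Cumulative food intake reduction was expressed as percent decrease versus vehicle.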

[7] = cynomolgus monkey, in vivo, sc, 5 nmol/kg
Procedure: as §3

[8] = Efficacy in db/db mice: body weight, food intake, glucose, biomarkers, daily sc 14 days; type: in vivo
[9] = C57 mice, 30 nmol/kg daily, Day11, unconjugated fusion proteins
[10] = 30 nmol/kg, FIG. 5A-E, versus Semaglutide, Tirzepatide and MLC014

Molecule | Body weight reduction at 30 nmol/kg (% reduction compared to vehicle)(Day11) [1, 9] [%] | Cumulative food intake reduction at 30 nmol/kg (% reduction compared to vehicle)(Day11) [1, 9] [%] | in vivo efficacy (food intake and body weight reduction) ([1]; unconjugated fusion proteins, 30 nmol/kg daily 10 days, by linker length) | body weight reduction efficacy [2] | food intake [2] | AUC0-24 h [3] [µM·h] | Cmax [3] [nM] | Terminal t1/2 [3] [h] | Tmax [4] [h] | Tmax [5] [h] | Body weight reduction at 30 nmol/kg (% reduction compared to vehicle)(Day11) [6] [%] | Cumulative food intake reduction at 30 nmol/kg (% reduction compared to vehicle)(Day11) [6] [%] | AUC0-96 h [7] [µM·h] | body weight loss [8, 10] | food intake suppression [8, 10] | efficacy ([8]; FIG. 5 study)
B1 | 22.1 | 48.7 | the most significant results among all the tested fusion proteins | much better body weight reduction efficacy | decreased food intake | – | – | – | – | – | – | – | – | – | – | –
B2 | – | – | – | – | – | 1.2468 | 71.9 | 9.3 | 16 | 10.7 | 24.7 | 51.2 | 1.541 | sustainable and much better effect | sustainable and much better effect | better efficacy than Semaglutide and GDF15 derivative (MLC014)

From US11453711B2, “Fusion proteins of GLP-1 and GDF15 and conjugates thereof” (BEIJING QL BIOPHARMACEUTICAL CO., LTD., priority 2019, dated 2022)
